From publication PMC3333781, “Systematic mapping of two component response regulators to gene targets in a model sulfate reducing bacterium”

Legend:
Assay in all cases: EMSA; 10 mM Tris-HCl pH 7.5, 1 mM DTT, 50 mM KCl, 5 mM MgCl2, 25% glycerol, 1 ug/ml poly dI-dC, 50-100 fmol biotinylated DNA, 25-30 C, 20 min
Conditions in all cases: protein: recombinant; tags: C-terminal V5-6xHis; chain copies: 2; label: 5'-biotin top strand
[1] = target: T1, DVU2114 response regulator (Desulfovibrio vulgaris Hildenborough, UniProt Q72A83 1-462)
T1 sequence: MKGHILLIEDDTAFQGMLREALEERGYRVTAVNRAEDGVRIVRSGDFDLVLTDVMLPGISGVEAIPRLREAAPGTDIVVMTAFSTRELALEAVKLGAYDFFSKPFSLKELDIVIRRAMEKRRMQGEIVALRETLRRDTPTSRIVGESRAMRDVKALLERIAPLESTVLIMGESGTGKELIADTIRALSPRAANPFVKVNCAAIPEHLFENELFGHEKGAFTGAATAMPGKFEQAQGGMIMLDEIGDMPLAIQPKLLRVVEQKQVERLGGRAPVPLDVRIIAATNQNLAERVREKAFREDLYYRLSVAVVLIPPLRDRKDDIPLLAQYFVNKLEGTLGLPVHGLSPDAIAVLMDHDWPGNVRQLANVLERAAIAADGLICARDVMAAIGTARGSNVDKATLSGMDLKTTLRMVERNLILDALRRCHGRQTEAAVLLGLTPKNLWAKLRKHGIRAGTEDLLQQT

[2] = target: T2, DVU1419 response regulator (Desulfovibrio vulgaris Hildenborough, UniProt Q72C65 1-459)
T2 sequence: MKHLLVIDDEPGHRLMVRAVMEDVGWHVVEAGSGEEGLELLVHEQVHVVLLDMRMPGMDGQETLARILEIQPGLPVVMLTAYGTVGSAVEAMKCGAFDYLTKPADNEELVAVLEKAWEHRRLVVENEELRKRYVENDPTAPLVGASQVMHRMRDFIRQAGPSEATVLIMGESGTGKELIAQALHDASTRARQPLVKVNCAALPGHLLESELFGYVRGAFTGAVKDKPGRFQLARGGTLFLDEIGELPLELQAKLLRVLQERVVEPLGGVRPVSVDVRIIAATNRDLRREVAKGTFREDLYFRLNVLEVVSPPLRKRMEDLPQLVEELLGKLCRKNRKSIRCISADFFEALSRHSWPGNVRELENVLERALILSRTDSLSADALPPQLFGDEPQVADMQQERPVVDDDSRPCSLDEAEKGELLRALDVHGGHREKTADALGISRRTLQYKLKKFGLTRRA

[3] = target: T3, DVU1063 response regulator (Desulfovibrio vulgaris Hildenborough, UniProt Q72D66 1-479)
T3 sequence: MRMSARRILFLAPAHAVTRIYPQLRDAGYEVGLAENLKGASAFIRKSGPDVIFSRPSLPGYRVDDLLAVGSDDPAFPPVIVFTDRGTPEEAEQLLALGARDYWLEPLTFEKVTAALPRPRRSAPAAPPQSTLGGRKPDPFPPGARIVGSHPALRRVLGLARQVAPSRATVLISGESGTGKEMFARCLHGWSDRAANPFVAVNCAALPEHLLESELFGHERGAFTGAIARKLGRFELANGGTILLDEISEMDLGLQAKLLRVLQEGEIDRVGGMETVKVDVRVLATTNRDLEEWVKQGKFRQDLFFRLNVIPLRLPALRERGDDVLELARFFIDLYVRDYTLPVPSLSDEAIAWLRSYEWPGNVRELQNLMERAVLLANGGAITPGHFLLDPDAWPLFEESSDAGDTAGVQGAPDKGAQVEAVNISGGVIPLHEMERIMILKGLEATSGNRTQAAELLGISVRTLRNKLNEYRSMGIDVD

B1: DVU2116 motif mut (dsDNA)
DNA 1: ACCGGGCCACTACACAAATCAATGCTGCCCATCGC
DNA 2: GCGATGGGCAGCATTGATTTGTGTAGTGGCCCGGT
binding result [1]: no binding

B2: DVU1418 motif mut (dsDNA)
DNA 1: GCCGTGGCGTACTATGCCATCGTTTGCTCGTTCATGGTGC
DNA 2: GCACCATGAACGAGCAAACGATGGCATAGTACGCCACGGC
binding result [2]: no binding

B3: DVU1032 motif mut (dsDNA)
DNA 1: GGCATGGTCGGGCACGTGTTTTCGATTGTATCCTG
DNA 2: CAGGATACAATCGAAAACACGTGCCCGACCATGCC
binding result [3]: no binding
